Biological target: C4BPα1–2 (His6-tagged fragment of human C4b-binding protein) (human)
Test: ITC; 23 °C, PBS; 300 to 500 μM intact M2 or M2G in the syringe, 30 to 50 μM C4BPα1–2 in the cell; single-site model

Substance	Kd [µM]	dH [kcal/mol]	stoichiometry N
M2G (M2_(53)G; M2 aa 53–86 fused to GCN4)	4	-27	0.51
intact M2 protein (Streptococcus pyogenes, strain AP2) (natural protein)	4	-24	0.5
